From US20110165592A1 (HOFFMAN LA ROCHE, published 2011)

T1: biotinylated peptide 382-402 (corresponding to the mature EPOR) (human, biotinylated (site not stated))
T1 construct: Range counted on mature human EPOR (aa406-426 of the precursor); also called EPOR peptide 382-402
T1 peptide: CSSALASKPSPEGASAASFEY

T2: human EPO receptor (human, UniProt P19235 25-508)
T2 construct: whole, on cells; In the Western blots the receptor stood in lysates of HeLa-EPOR (recombinant) and UT-7 cells; band of about 60 kDa; also called human erythropoietin receptor
T2 sequence (looked up): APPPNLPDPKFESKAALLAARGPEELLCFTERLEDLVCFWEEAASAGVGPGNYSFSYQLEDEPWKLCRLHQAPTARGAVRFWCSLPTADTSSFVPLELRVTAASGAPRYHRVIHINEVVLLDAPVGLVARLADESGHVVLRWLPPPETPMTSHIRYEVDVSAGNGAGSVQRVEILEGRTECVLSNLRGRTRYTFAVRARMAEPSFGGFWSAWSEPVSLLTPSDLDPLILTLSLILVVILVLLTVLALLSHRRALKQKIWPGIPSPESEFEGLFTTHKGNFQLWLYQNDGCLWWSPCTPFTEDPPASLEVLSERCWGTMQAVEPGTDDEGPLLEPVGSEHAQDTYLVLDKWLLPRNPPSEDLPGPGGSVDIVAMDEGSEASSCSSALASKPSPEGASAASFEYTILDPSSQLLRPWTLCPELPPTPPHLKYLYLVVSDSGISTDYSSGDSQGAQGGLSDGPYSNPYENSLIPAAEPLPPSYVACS


Key:
[1] = molecular target: T1, biotinylated peptide 382-402 …; assay: Biacore 3000 SPR, 25 C, antibody on immobilized biotinylated peptide (avidity)
Procedure: Measurements were made on a BIACORE™ 3000 at 25° C. in HBS-EP-Buffer, pH 7.4 (10 mM HEPES, 150 mM NaCl, 3.4 mM EDTA, 0.005% polysorbate 20 (w/v). 1.0 mg/ml CMD was added to reduce unspecific binding. Results are shown in Table 1.

human EPO receptor = molecular target: T2, human EPO receptor; assay: Western blot of lysates of HELAwt, HELA-EPOR and UT-7 cells
Procedure: FIG. 2 WB analysis of lysates from HELAwt, HELA-EPOR and UT-7 cells (to show specificity). (a) Specific binding of Mab Cl. […] (b) Specific binding of Mab Cl.
The SDS-PAGE and western blotting were performed according to standard procedures and the NuPAGE® gel system of Invitrogen. The extracts corresponding to different number of cells were loaded in each line of a NuPAGE® Novex® 4-12% Bis-Tris gel. The proteins were then transferred onto PVDF membranes and incubated with the respective antibodies overnight at 4° C. After washing, the membranes were incubated with a conjugate anti-mouse or anti-rabbit IgG-POD and developed using ECL reagents (Lumi-Light^PLus western blotting substrate, Roche Diagnostics GmbH): Results are shown in FIG. 2.

| Binder | Ka [1] [M⁻¹] | Kd [1] [nM] | koff [1] [s⁻¹] | kon [1] [M⁻¹ s⁻¹] | binding result (human EPO receptor) |
| --- | --- | --- | --- | --- | --- |
| Mab Cl. 19.1.2 (antibody, V domains shown, Mouse (Balb/c) monoclonal raised against peptide 382-402) VH: QVQLQQSGAELVRPGSSVKISCKASGYTFSRYWMNWVKQRPGQGLEWIGQIYPGDGDTNYIGDFKGKATLTADKSSSIAYMQLSSLTSEDSAVYFCARLMVPTYGLDYWGQGTSVTVSS VL: DIVMSQSPSSLAVSAGEKVTMSCKSSQSLLNSRTRKNYLAWYQQKPGQSPKLLIYWASTRESGVPDRFTGSGSGTDFTLTIYSVQAEDLAVYYCKESYILPYTLGGGTKLEIK | 1.1e+09 | 1 | 0.0021 | 1.9e+06 | binds |
| Mab Cl. 21.3.1 (antibody, V domains shown) VH: AVQVVESGGDLVKPGGSLQLSCAASGFTFSSYAMSWARQTPEKRLEWVATISGRGTYTYYPDSVKGRFTISRDNAKNILYLQMSSLRSEDTAMYYCTPRLFAYWGQGTLVTVSA VL: not shown |  |  |  |  | binds |
